Laboratory results from ChEMBL document CHEMBL3244047, “Peptidyl transferase substrate specificity with nonaromatic aminoacyl analogues of puromycin” (J Med Chem, 1978).
Blank lines part the entries; values can stand above or below the compound they belong to. The source made the active and inactive calls. No cut-off for these calls is given here.

How the values were obtained:
[1] = biological target: T1, Bacterial 70S ribosome (Bacteria) (UniProt P0A7V0+P60723+P0AG67+P0A7R5+P0A7R9+P0A7S3+P0A7S9+P0AG59+P0ADZ4+P0A7T3+P0AG63+P0A7T7+P0A7U3+P0A7U7+P68679+P0A7V3+P0A7V8+P0A7W1+P02358+P02359+P0A7W7+P0A7X3+P0A7J3+P0A7J7+P0AA10+P0ADY3+P02413+P0ADY7+P0AG44+P0C018+P0A7K6+P0A7L0+P0A7L3+P0AG48+P61175+P0ADZ0+P60624+P68919+P0A7L8+P0A7M2+P0A7M6+P60422+P0AG51+P0A7N1+P0A7M9+P0A7N4+P0A7N9+P0A7P5+P0A7Q1+Q2EEQ2+P0A7Q6+P60438+P62399+P0AG55+P0A7K2); experiment: Activity of Escherichia coli ribosomal peptidyl transferase using Ac[14C]phe-tRNA as donor substrate assessed as [14C]polyphenylalanine formation after 40 mins by scintillation counting analysis in presence of poly(U) relative to puromycin
[2] = test system: CCCCCCCCSC[C@H](N)C(=O)N[C@H]1[C@@H](O)[C@H](n2cnc3c(N(C)C)ncnc32)O[C@@H]1CO; experiment: (§1) Activity of Escherichia coli ribosomal peptidyl transferase using Ac[14C]phe-tRNA as donor substrate assessed as [14C]polyphenylalanine formation after 40 mins by double reciprocal plot analysis in presence of poly(U); details: Ribosome
[3] = test system: CCCCCCSC[C@H](N)C(=O)N[C@H]1[C@@H](O)[C@H](n2cnc3c(N(C)C)ncnc32)O[C@@H]1CO; experiment: as §1; details: Ribosome
[4] = test system: CCCCCSC[C@H](N)C(=O)N[C@H]1[C@@H](O)[C@H](n2cnc3c(N(C)C)ncnc32)O[C@@H]1CO; experiment: as §1; details: Ribosome
[5] = test system: CCCCSC[C@H](N)C(=O)N[C@H]1[C@@H](O)[C@H](n2cnc3c(N(C)C)ncnc32)O[C@@H]1CO; experiment: as §1; details: Ribosome
[6] = test system: CCCSC[C@H](N)C(=O)N[C@H]1[C@@H](O)[C@H](n2cnc3c(N(C)C)ncnc32)O[C@@H]1CO; experiment: as §1; details: Ribosome
[7] = test system: CN(C)c1ncnc2c1ncn2[C@@H]1O[C@H](CO)[C@@H](NC(=O)[C@@H](N)CSCCCCCCO)[C@H]1O; experiment: as §1; details: Ribosome
[8] = test system: CN(C)c1ncnc2c1ncn2[C@@H]1O[C@H](CO)[C@@H](NC(=O)[C@@H](N)CSCc2ccccc2)[C@H]1O; experiment: as §1; details: Ribosome
[9] = test system: COc1ccc(C[C@H](N)C(=O)N[C@H]2[C@@H](O)[C@H](n3cnc4c(N(C)C)ncnc43)O[C@@H]2CO)cc1; experiment: as §1; details: Ribosome
[10] = biological target: T1, Bacterial 70S ribosome (Bacteria); experiment: Activity of Escherichia coli ribosomal peptidyl transferase using Ac[14C]phe-tRNA as donor substrate assessed as [14C]polyphenylalanine formation at 2 x 10^-4 M after 40 mins by double reciprocal plot analysis in presence of poly(U)

Compound: Bacterial 70S ribosome (Bacteria) (from UniProt P0A7V0+P60723+P0AG67+P0A7R5+P0A7R9+P0A7S3+P0A7S9+P0AG59+P0ADZ4+P0A7T3+P0AG63+P0A7T7+P0A7U3+P0A7U7+P68679+P0A7V3+P0A7V8+P0A7W1+P02358+P02359+P0A7W7+P0A7X3+P0A7J3+P0A7J7+P0AA10+P0ADY3+P02413+P0ADY7+P0AG44+P0C018+P0A7K6+P0A7L0+P0A7L3+P0AG48+P61175+P0ADZ0+P60624+P68919+P0A7L8+P0A7M2+P0A7M6+P60422+P0AG51+P0A7N1+P0A7M9+P0A7N4+P0A7N9+P0A7P5+P0A7Q1+Q2EEQ2+P0A7Q6+P60438+P62399+P0AG55+P0A7K2)
Km [2]: 177 µM
Vmax [2]: 1.38 pmol/min
Km [3]: 215 µM
Vmax [3]: 2.46 pmol/min
Km [4]: 255 µM
Vmax [4]: 2.36 pmol/min
Km [5]: 395 µM
Vmax [5]: 2.43 pmol/min
Km [6]: 374 µM
Vmax [6]: 2.86 pmol/min
Km [7]: 166 µM
Vmax [7]: 2.71 pmol/min
Km [8]: 460 µM
Vmax [8]: 1.36 pmol/min
Km [9]: 234 µM
Vmax [9]: 3.99 pmol/min

Compound: CN(C)c1ncnc2c1ncn2[C@@H]1O[C@H](CO)[C@@H](NC(=O)[C@@H](N)CSCc2ccccc2)[C@H]1O
Efficacy [1]: 17.4%

Compound: CN(C)c1ncnc2c1ncn2[C@@H]1O[C@H](CO)[C@@H](NC(=O)[C@@H](N)CSC(c2ccccc2)c2ccccc2)[C@H]1O
Activity [10]: inactive

Compound: CCCCSC[C@H](N)C(=O)N[C@H]1[C@@H](O)[C@H](n2cnc3c(N(C)C)ncnc32)O[C@@H]1CO
Efficacy [1]: 36.2%

Compound: CCCCCCSC[C@H](N)C(=O)N[C@H]1[C@@H](O)[C@H](n2cnc3c(N(C)C)ncnc32)O[C@@H]1CO
Efficacy [1]: 67.5%

Other lines, results leading:

Efficacy [1]: 45.6%
Compound: CCCCCCCCSC[C@H](N)C(=O)N[C@H]1[C@@H](O)[C@H](n2cnc3c(N(C)C)ncnc32)O[C@@H]1CO

Efficacy [1]: 54.3%
Compound: CCCCCSC[C@H](N)C(=O)N[C@H]1[C@@H](O)[C@H](n2cnc3c(N(C)C)ncnc32)O[C@@H]1CO

Efficacy [1]: 44.8%
Compound: CCCSC[C@H](N)C(=O)N[C@H]1[C@@H](O)[C@H](n2cnc3c(N(C)C)ncnc32)O[C@@H]1CO

Efficacy [1]: 95.6%
Compound: CN(C)c1ncnc2c1ncn2[C@@H]1O[C@H](CO)[C@@H](NC(=O)[C@@H](N)CSCCCCCCO)[C@H]1O

Activity [10]: inactive
Compound: CCC(CC)SC[C@H](N)C(=O)N[C@H]1[C@@H](O)[C@H](n2cnc3c(N(C)C)ncnc32)O[C@@H]1CO
